System: NCP147
Test: EMSA with NCP147
Assay type: binding
Details: 5 nM 147 bp fluorescein-labeled NCP, pH 7.5, 4 °C
Description: EMSAs were performed by mixing increasing amounts of MORC4 ATPase with 5 nM 147 bp fluorescein-labeled NCP in 25 mM Tris-HCl pH 7.5, 75 mM NaCl, 25 mM Tris-HCl pH 7.5, 0.005% Tween 20, and 10% glycerol buffer in a 12 μL reaction volume. Each sample was incubated at 4 °C for 5 min and then loaded onto a 5% native polyacrylamide gel. Electrophoresis was performed in 0.3× Tris-borate-EDTA (TBE) at 300 V for 90 min. Fluorescein fluorescence images were acquired with a Typhoon Phosphor Imager.

B1: ATPaseCW: ATPaseCW cassette (aa 29–486) of human MORC4 (Q8TE76) (protein)
chain: GIRLSTMSPRYLQSNSSSHTRPFSAIAELLDNAVDPDVSARTVFIDVEEVKNKSCLTFTDDGCGMTPHKLHRMLSFGFTDKVIKKSQCPIGVFGNGFKSGSMRLGKDALVFTKNGGTLTVGLLSQTYLECVQAQAVIVPIVPFNQQNKKMIITEDSLPSLEAILNYSIFNRENDLLAQFDAIPGKKGTRVLIWNIRRNKNGKSELDFDTDQYDILVSDFDTEEKMTGGVTSELPETEYSLRAFCGILYMKPRMKIFLRQKKVTTQMIAKSLANVEYDTYKPTFTNKQVRITFGFSCKNSNQFGIMMYHNNRLIKSFEKVGCQVKPTRGEGVGVIGVIECNFLKPAYNKQDFEYTKEYRLTINALAQKLNAYWKEKTSQDNFETSTVARPIPKVPDQTWVQCDECLKWRKLPGKIDPSMLPARWFCYYNSHPKYRRCSVPEEQELTDEDLCLSKAKKQE
modifications: left off: GST, end not stated, cleaved
- binding to NCP147 in EMSA: bound to NCP147

Reference: paper PMC7596504, “Molecular mechanism of the MORC4 ATPase activation” (Nature Communications, 2020)
